The data set concerns the target T1, FLAG-Npas4 (Mus musculus (mouse), UniProt Q8BGD7 1-802).
T1 sequence: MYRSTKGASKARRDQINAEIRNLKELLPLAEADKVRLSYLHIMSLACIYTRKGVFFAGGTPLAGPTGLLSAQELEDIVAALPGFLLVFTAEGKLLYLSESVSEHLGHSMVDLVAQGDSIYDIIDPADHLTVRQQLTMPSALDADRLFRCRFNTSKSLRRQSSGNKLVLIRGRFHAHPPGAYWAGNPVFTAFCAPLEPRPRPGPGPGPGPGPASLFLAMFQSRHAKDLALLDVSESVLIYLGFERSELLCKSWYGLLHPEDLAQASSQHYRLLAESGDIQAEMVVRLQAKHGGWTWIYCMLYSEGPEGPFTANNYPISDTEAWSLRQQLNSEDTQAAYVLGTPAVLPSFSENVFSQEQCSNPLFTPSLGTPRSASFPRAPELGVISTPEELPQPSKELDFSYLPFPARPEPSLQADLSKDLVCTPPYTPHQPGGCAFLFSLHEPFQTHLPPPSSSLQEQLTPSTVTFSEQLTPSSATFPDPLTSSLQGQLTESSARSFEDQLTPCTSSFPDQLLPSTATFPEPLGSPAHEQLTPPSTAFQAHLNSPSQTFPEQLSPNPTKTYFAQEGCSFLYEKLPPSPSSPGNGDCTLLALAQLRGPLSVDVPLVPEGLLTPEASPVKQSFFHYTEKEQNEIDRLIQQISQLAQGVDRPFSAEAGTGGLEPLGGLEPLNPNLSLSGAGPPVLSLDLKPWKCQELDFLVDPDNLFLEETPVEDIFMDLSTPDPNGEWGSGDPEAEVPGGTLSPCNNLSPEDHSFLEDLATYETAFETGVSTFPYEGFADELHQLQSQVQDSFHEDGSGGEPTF
Put plainly: EMSA. On the technique in general: A gel shift assay detects complexes by their altered migration in electrophoresis.

B1: Iqsec3 promoter WT probe (dsDNA)
DNA 1: CGGGAAGCAGGGTTCCTCACGAAGCCCAGAGGTGGGAGGTGG
DNA 2: CCACCTCCCACCTCTGGGCTTCGTGAGGAACCCTGCTTCCCG
For the molecule B1, the binding result was “binds”.

B2: Iqsec3 promoter MT probe (dsDNA)
DNA 1: CGGGAAGCAGGGTTCCTAAAAAAGCCCAGAGGTGGGAGGTGG
DNA 2: CCACCTCCCACCTCTGGGCTTTTTTAGGAACCCTGCTTCCCG
On to B2, for which the binding result is listed as “no binding”.
